Measured values as given in ChEMBL document CHEMBL4033784, “Discovery of 1,5-Diphenylpyrazole-3-Carboxamide Derivatives as Potent, Reversible, and Selective Monoacylglycerol Lipase (MAGL) Inhibitors” (J Med Chem, 2018).

Substrate: Cc1cccc(Cn2nc(C(=O)N3CCC(Cc4ccccc4)CC3)cc2-c2ccc(O)cc2)c1
Settings: Homo sapiens
Description: Competitive inhibition of recombinant human MAGL assessed as substrate Km using 4-NPA as substrate after 30 mins by Michaelis-Menten plot analysis

B1: Monoglyceride lipase (Homo sapiens), Q99685 (protein)
chain: MPEESSPRRTPQSIPYQDLPHLVNADGQYLFCRYWKPTGTPKALIFVSHGAGEHSGRYEELARMLMGLDLLVFAHDHVGHGQSEGERMVVSDFHVFVRDVLQHVDSMQKDYPGLPVFLLGHSMGGAIAILTAAERPGHFAGMVLISPLVLANPESATTFKVLAAKVLNLVLPNLSLGPIDSSVLSRNKTEVDIYNSDPLICRAGLKVCFGIQLLNAVSRVERALPKLTVPFLLLQGSADRLCDSKGAYLLMELAKSQDKTLKIYEGAYHVLHKELPEVTNSVFHEINMWVSQRTATAGTASPP
B1 was tested, and the Km was 210 µM.
